Data from patent US12285502B2, “HER3 peptides for imaging and radiotherapy” (The General Hospital Corporation, priority 2016, dated 2025).
Like-named read-outs stand apart in the source and are kept apart here.

What was measured:
TNBC cell lines [1] = conditions: criterion for cell lines considered sensitive (CAL-148, HCC-70, CAL-51, HCC-1395, HS-578T); cited from earlier work
TNBC cell lines [2] = conditions: criterion for cell lines considered sensitive (HDQ-P1, CAL-51, HCC-70, CAL-148, HCC-1395, HS-578T); cited from earlier work
[3] = test system: HCC-1954 (low HER3 expressing breast cancer) tumors; set-up: species or system Nu/nu mice; conditions: mouse, in vivo
Protocol: (§1) The peptide was radio labeled with the radiometal ^68Ga eluted from a ^68Ge/^68Ga generator (iThemba, South Africa) in 0.05M HCl. The pH of the elution was adjusted to approximately 4 by 2M=2-[4-(2-hydroxyethyl) piperazin-1-yl]ethanesulfonic acid and 100 ng of peptide reacted with the elution for 10 min at room temperature. Peptide was purified from free ^68Ga by reverse phase C18 cartridge (Waters, Milford, MA) and purity determined by ITLC. The peptide was then prepared in normal saline to a specific activity of approximately 300 MBq/mg for injection into mice. Nu/nu mice bearing either 22RV1 (high HER3 expressing prostate cancer) or HCC-1954 (low HER3 expressing breast cancer) tumors were implanted in the right upper flank of mice and grown to approximately 5-7 mm. Radiolabeled HER3 peptide was injected intravenously and allowed to circulate for 1 h prior to PET imaging. PET images were acquired on an Inveon micro PET/CT (Siemens, Knoxville, TN) for 15 minutes in list mode, followed by CT acquisition. Images were constructed using 3D-MLEM (20 subsets) and corrected for scatter and randoms. The tumor and blood uptake was calculated in a 3D region of interest drawn around the tumor and heart, respectively, using CT guidance. Images were post-processed using VivoQuant (InviCRO, Boston, MA).

[4] = test system: 22RV1 (high HER3 expressing prostate cancer) tumors; set-up: species or system Nu/nu mice; conditions: mouse, in vivo
Protocol: as §1

human MDA-MB-453 tumors = test system: human MDA-MB-453 tumors; set-up: species or system mice; conditions: mouse, in vivo
Protocol: Following imaging, mice were treated with 100 mg/kg of lapatinib every 12 hours for 48 hours following PET imaging. At the end of 48 hours, mice were imaged in the exact same manner as before treatment.

[5] = test system: HCC-1954 cells (low HER3); assay: HER3 peptide cellular binding (streptavidin-HRP absorbance, fluorescent microscopy), HCC-1954; assay type: cell-based; conditions: fixed HCC-1954 cells, 250 nM peptide
Protocol: (§2) Two cell lines, MDA-MB-453 breast cancer cells which express moderate levels of HER3 and HCC-1954 cells which express low levels of HER3, were chosen to assess the ability of the peptide to discriminate between relatively close expression levels in vitro. Cells were seeded at a density of 1×10^5 cells/well in 96 well plates (Fisher) and grown overnight for 24 h in fetal bovine serum supplemented medium. HER3 peptide or a control peptide were added at 250 nM in media and incubated for 1 h at 37° C. Cells were washed 3× with PBS and bound peptide detected by addition of streptavidin-HRP. Cells were once again washed and bound peptide detected by addition of ABTS and absorbance read at 405 nm. Visual confirmation of peptide binding was confirmed by fluorescent microscopy. MDA-MB-453 and HCC-1954 cells were fixed in 10% formalin and dried onto microscope slides overnight. Following rehydration with TBS, slides were blocked with 2% BSA in TBS for 1 h prior to addition of peptide at a concentration of 250 nM in 0.1% TBST and incubation at room temperature for 1 h. Cells were washed 3× with 0.1% TBST and neutravidin-Alexafluor488 was added to cells and incubated at room temperature for 1 h. Cells were washed, mounted with Vectorshield mounting media with DAPI (Vector Labs, Burlingame, CA) and visualized by inverted microscope (Olympus, Tokyo, Japan).

[6] = test system: MDA-MB-453 breast cancer cells (moderate HER3); assay: HER3 peptide cellular binding (streptavidin-HRP absorbance, fluorescent microscopy), MDA-MB-453; assay type: cell-based
Protocol: as §2

[7] = mouse, in vivo, iv
Excerpt: Following PET acquisition, tumors and relevant organs were removed from mice, weighed, and total activity for each was quantified by a Wallac gamma counter (Perkin Elmer, Waltham, MA). […] The specific activity of the labeled peptide was 296±25.9 MBq/mg.

HER3 ECD = HER3 ECD (Homo sapiens, UniProt P21860); conditions: peptide ELISA absorbance
Chain of HER3 ECD (P21860 20-643 limits assumed): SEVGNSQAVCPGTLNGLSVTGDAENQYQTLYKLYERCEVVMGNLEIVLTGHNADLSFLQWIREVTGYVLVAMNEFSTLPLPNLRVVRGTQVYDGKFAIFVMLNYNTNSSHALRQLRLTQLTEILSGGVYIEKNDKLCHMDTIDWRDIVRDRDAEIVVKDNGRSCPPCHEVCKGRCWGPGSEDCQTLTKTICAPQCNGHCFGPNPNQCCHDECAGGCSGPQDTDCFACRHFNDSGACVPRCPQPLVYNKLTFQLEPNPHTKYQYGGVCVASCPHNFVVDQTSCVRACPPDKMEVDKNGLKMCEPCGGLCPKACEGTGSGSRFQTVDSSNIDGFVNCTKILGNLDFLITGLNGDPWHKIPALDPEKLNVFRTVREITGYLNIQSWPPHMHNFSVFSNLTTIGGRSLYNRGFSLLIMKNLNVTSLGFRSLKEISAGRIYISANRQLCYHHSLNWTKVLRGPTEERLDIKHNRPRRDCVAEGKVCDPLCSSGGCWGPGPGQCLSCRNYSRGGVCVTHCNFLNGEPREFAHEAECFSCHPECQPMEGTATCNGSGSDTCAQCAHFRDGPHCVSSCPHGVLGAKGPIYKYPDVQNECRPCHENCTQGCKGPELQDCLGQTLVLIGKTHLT
Protocol: (§3) The purity and molecular weight were determined by high performance liquid chromatography and mass spectrometry. […] Following blocking with 1% non-fat dry milk, increasing concentrations of peptide were incubated with target protein for 1 h at 37° C. Wells were washed with 0.1% TBST, and bound peptide detected by addition of HRP-conjugated streptavidin (Abeam, Cambridge, UK), washing and ABTS substrate incubation for 10 minutes. Absorbance at 405 nm was read by spectrophotometer. […] Plates were washed and bound peptide once again detected by addition of streptavidin-HRP and ABTS and absorbance read at 405 nm.

EGFR = EGFR (Homo sapiens, UniProt P00533); conditions: 250 nM peptide, 405 nm
Protocol: as §3

CC(C)NC[C@@H](C(=O)N1CCN(c2ncnc3c2[C@H](C)C[C@H]3O)CC1)c1ccc(Cl)cc1 [GDC-0068]
IC50 (TNBC cell lines [1]): < 1000 nM

CS(=O)(=O)N1CCN(Cc2cc3nc(-c4cccc5[nH]ncc45)nc(N4CCOCC4)c3s2)CC1 [GDC-0941]
IC50 (TNBC cell lines [2]): < 1000 nM

CC(C)C[C@@H]1NC(=O)[C@@H](NC(=O)CNC(=O)CNC(=O)CNC(=O)CCNC(=S)Nc2ccc(CC3CN(CC(=O)O)CCN(CC(=O)O)CCN3CC(=O)O)cc2)CSSC[C@@H](C(=O)O)NC(=O)[C@H](CO)NC(=O)[C@H](CCCNC(=N)N)NC(=O)[C@H](Cc2ccccc2)NC(=O)[C@H](CCCCN)NC(=O)[C@H]([C@@H](C)O)NC(=O)[C@@H]2CCCN2C1=O (stereo partly drawn) [^68Ga-(NOTA-NCS)-HER3P1, ^68Ga-(NOTA-NCS)-beta A-G-G-G-C-L-P-T-K-F-R-S-C, metal not drawn]
tumor uptake by PET imaging [3]: much lower levels | standardized tumor to blood ratios (TBR) ([3]; iv): 0.69-0.94 | off-target peptide accumulation [4]: minimal | tumor uptake by PET imaging [4]: high | standardized tumor to blood ratios (TBR) ([4]; iv): 1.60-3.32

C-L-P-T-K-F-R-S-C [HER3P1]
SUVmean (human MDA-MB-453 tumors): 0.42±0.04 | binding by fluorescent microscopy [5]: almost no visualization | cell binding absorbance ([6]; MDA-MB-453, 250 nM peptide, 1 h 37° C., 405 nm): 0.29±0.06 | binding by fluorescent microscopy ([6]; fixed MDA-MB-453 cells, 250 nM peptide): high binding | biodistribution, HER3+ tumors [7]: 0.50±0.18 % ID/g | biodistribution, intestines [7]: 0.48±0.15 % ID/g | biodistribution, kidneys [7]: 10.1±1.67 % ID/g | biodistribution, lungs [7]: 0.70±0.14 % ID/g | biodistribution, stomach [7]: 0.30±0.07 % ID/g | selectivity/specificity for HER3 over other proteins (EGFR, HER2, BSA) (HER3 ECD): approximately 4 fold | selectivity/specificity for HER3 over other proteins (EGFR, HER2, BSA) (HER3 ECD; listed as displayed peptide conjugated to biotin): greater than 4 fold | absorbance of binding to EGFR (EGFR): 0.21±0.09
